The values below come from article PMC3234919 (The Journal of Biological Chemistry, 2011).

Data set [1] concerns the molecule itself. The data set is described as follows: crystal structure.
The data set “SEC” concerns the molecule itself. The data set is described as follows: SEC. In general terms: In gel filtration, larger molecules generally elute earlier.
Data set [2] concerns the molecule itself. Description: crystal structure. The source holds these as a separate data set.

As usually defined, the stoichiometry N is the number of molecules, sites or subunits per partner or assembly.

Changes are numbered by the printed parent chain. Numbers in names are those of the source.

B1: human peroxiredoxin IV C51A mutant (residues 37-271 of the preprotein) (enzyme, UniProt Q13162 37-271, looked up)
chain: GWETEERPRTREEEAHFYAGGQVYPGEASRVSVADHSLHLSKAKISKPAPYWEGTAVIDGEFKELKLTDYRGKYLVFFFYPLDFTFVCPTEIIAFGDRLEEFRSINTEVVACSVDSQFTHLAWINTPRRQGGLGPIRIPLLSDLTHQISKDYGVYLEDSGHTLRGLFIIDDKGILRQITLNDLPVGRSVDETLRLVQAFQYTDKHGEVCPAGWKPGSETIIPDPAGKLKYFDKLN
As to B1, in the data set “crystal structure [1]”, the “stoichiometry N” value was determined as 10.

B2: human peroxiredoxin IV, wild type, full-length mature protein (residues 37-271 of the preprotein) (enzyme, UniProt Q13162 37-271, looked up)
chain: B1 chain with A15C
As to B2, the “stoichiometry N” value in the data set “SEC” stood at 10.

B3: human peroxiredoxin IV C245A resolving cysteine mutant, sulfenylated at the peroxidatic cysteine (enzyme, UniProt Q13162 37-271, looked up)
chain: B1 chain with A15C, C209A
modifications: cysteine sulfenic acid at Cys-124 (peroxidatic cysteine)
Regarding B3, the “stoichiometry N” value in “crystal structure [2]” was found to be 10.

B4: human peroxiredoxin IV C245A resolving cysteine mutant, reduced (enzyme, UniProt Q13162 37-271, looked up)
chain: B1 chain with A15C, C209A
On to B4, for which the “stoichiometry N” value in the data set “crystal structure [1]” is 10.

B5: PrxIII (enzyme, UniProt P30048 62-256, looked up)
chain: APAVTQHAPYFKGTAVVNGEFKDLSLDDFKGKYLVLFFYPLDFTFVCPTEIVAFSDKANEFHDVNCEVVAVSVDSHFSHLAWINTPRKNGGLGHMNIALLSDLTKQISRDYGVLLEGSGLALRGLFIIDPNGVIKHLSVNDLPVGRSVEETLRLVKAFQYVETHGEVCPANWTPDSPTIKPSPAASKEYFQKVNQ
Take B5: in the data set “SEC”, the “stoichiometry N” value amounted to 2.
